± gives the standard deviation of the averaged measurements.
system: ATP; assay: switch fluorescence ratio, 500 uM ATP over buffer (Cy3 cluster intensity, sum of 5 cycles each) (fold (ratio)); higher = stronger signal-on switching upon ATP binding; sequences stand for … in TCGTCGGCAGCGTCAGATGTGTATAAGAGACAGTTTTTTTTTTTTTTTTTTTTTTTTT…TC; settings: aptamer strand: ATP DNA aptamer (quencher-CACCTGGGGGAGTATTGCGGAGGAAGG + anchor), 100 nM annealed; ATP concentration: 500 uM
How it was run: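 Cy3-labelled switching-strand clusters on a modified Illumina MiSeq flow-cell were annealed to 100 nM quencher-labelled ATP aptamer, imaged in selection buffer, then imaged after 15 min with 500 uM ATP at 22 °C. Five buffer/ATP cycles ran, with NaOH stripping and re-annealing between them. The fluorescence ratio is summed target-cycle over summed buffer-cycle Cy3 intensity per cluster, averaged per switch-domain sequence. Clusters outside 100-1000 RFU were excluded.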
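Note: ATP exposure 15 min at 22 °C before imaging.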

Sequence | switch fluorescence ratio
TGATTCTGTG | 1.02 ± 0.03
TGATTGAGAG | 1.016 ± 0.0025
TGATTGGGGT | 1.01 ± 0.024
TGATTGGTGG | 1.01 ± 0.041
TGATTGGTTC | 0.9788 ± 0.0029
TGATTGTACT | 1 ± 0.02
TGATTGTTAT | 1.029 ± 0.0016
TGATTTCATT | 1.02 ± 0.048
TGATTTGGTT | 0.9903 ± 0.0083
TGATTTTCGG | 0.974 ± 0.032
TGATTTTTTT | 1.01 ± 0.031
TGCAAAAAAT | 1.02 ± 0.011
TGCAAAGAGC | 0.9824 ± 0.0073
TGCAACGTAT | 1.13 ± 0.19
TGCAAGGGAG | 1.0133 ± 0.00021
TGCAATAGGG | 1.35 ± 0.12
TGCAATATAT | 1.14 ± 0.01
TGCAATGTTG | 1.04 ± 0.047
TGCACAATCG | 1.01 ± 0.1
TGCACCGGGG | 1.02 ± 0.016
TGCACGTTGC | 1.02 ± 0.03
TGCAGAGGAA | 1.03 ± 0.018
TGCAGCATCA | 1.11 ± 0.012
TGCAGCTGGA | 0.977 ± 0.022
TGCAGGAAAC | 1.05 ± 0.036

Sequence | switch fluorescence ratio
TGCAGGAGGG | 0.972 ± 0.022
TGCAGGATAT | 1.61 ± 0.57
TGCAGGGACT | 1.005 ± 0.0081
TGCAGGGATG | 0.986 ± 0.041
TGCAGGGCGC | 1.04 ± 0.028
TGCAGGGCGG | 0.9806 ± 0.0017
TGCAGGGTGC | 1.04 ± 0.016
TGCAGGTCTT | 1 ± 0.052
TGCAGTAAGG | 0.97794 ± 0.00081
TGCAGTAATA | 1.53 ± 0.13
TGCATCATAA | 1.01 ± 0.024
TGCATGTTGG | 0.9937 ± 0.0017
TGCATTCATG | 0.996 ± 0.029
TGCATTTAAT | 1.01 ± 0.027
TGCATTTACT | 1.133 ± 0.0035
TGCATTTGGA | 0.978 ± 0.015
TGCATTTTTG | 1.06 ± 0.053
TGCCAATATC | 1.7 ± 0.08
TGCCAATATG | 1.06 ± 0.014
TGCCATGTTT | 0.966 ± 0.014
TGCCCCGATA | 2.66 ± 2.3
TGCCCGCCGT | 1.03 ± 0.067
TGCCCTTTTT | 1.01 ± 0.095
TGCCGATCAG | 0.993 ± 0.05
TGCCGCAAAA | 1.82 ± 0.85

Sequence | switch fluorescence ratio
TGCCGGGGGC | 1.04 ± 0.025
TGCCGGGGTT | 1.1 ± 0.2
TGCCGGTAAA | 1.01 ± 0.051
TGCCTAACTT | 1.019 ± 0.0066
TGCCTAAGAT | 1 ± 0.021
TGCCTCTTTT | 0.9886 ± 0.006
TGCCTTATGG | 0.983 ± 0.045
TGCCTTATTT | 0.9999 ± 0.0049
TGCCTTGCTT | 1.01 ± 0.023
TGCCTTTTTT | 1 ± 0.016
TGCGAAACTT | 1.07 ± 0.011
TGCGAATTCG | 0.996 ± 0.037
TGCGACCATT | 1.03 ± 0.04
TGCGAGATTT | 1.01 ± 0.018
TGCGAGGATG | 1 ± 0.0028
TGCGAGGGGA | 1.01 ± 0.032
TGCGAGGTCA | 1.03 ± 0.022
TGCGATATTA | 1.02 ± 0.031
TGCGATGGTC | 1.18 ± 0.065
TGCGATTATG | 1.02 ± 0.041
TGCGATTTGT | 1.04 ± 0.043
TGCGCAATTT | 1.205 ± 0.0054
TGCGCCTCAG | 1.08 ± 0.074
TGCGGCCGGG | 1.01 ± 0.012
TGCGGCGACG | 0.993 ± 0.015

Sequence | switch fluorescence ratio
TGCGGCTGGG | 0.978 ± 0.019
TGCGGCTTCG | 0.913 ± 0.061
TGCGGGCTAG | 1.01 ± 0.015
TGCGGGGTAC | 1.25 ± 0.045
TGCGGGGTCA | 1.02 ± 0.034
TGCGGGTAAT | 0.9985 ± 0.0046
TGCGGGTGGG | 1.03 ± 0.026
TGCGGGTTAG | 0.984 ± 0.032
TGCGGTCCTG | 1 ± 0.017
TGCGGTCGCG | 0.959 ± 0.012
TGCGGTGTGC | 1.04 ± 0.017
TGCGTAGGGT | 0.967 ± 0.011
TGCGTAGTTA | 0.987 ± 0.012
TGCGTCAAAT | 0.999 ± 0.024
TGCGTCCCAA | 1.34 ± 0.021
TGCGTCGGCG | 1 ± 0.013
TGCGTGAAGT | 1.041 ± 0.0091
TGCGTTGGTG | 1.006 ± 0.0061
TGCTAAAGGT | 0.9836 ± 0.0095
TGCTACAGGA | 1.02 ± 0.0049
TGCTACTGC | 1.03 ± 0.015
TGCTAGAAGT | 0.9792 ± 0.003
TGCTATAAAG | 0.988 ± 0.043
TGCTATAATG | 1.02 ± 0.021
TGCTATATTA | 0.99152 ± 0.00065

— the supplement of paper PMC10126150
